Experimental data published in FireProtDB (doi:10.1021/bi001900v).
Where “and” joins values, the source holds several entries; their conditions need not be identical. Equal values may be shown once.

Conditions: Dickeya chrysanthemi, reversible: yes, whole UniProt chain shown; for Tm / unfolding enthalpy (calorimetric) / unfolding enthalpy (van 't Hoff): Thermal, DSC; for denaturant m value / denaturant midpoint (higher = more stable) / unfolding free energy: 25 °C, GdnHCl
[1] = pH 5, CD, Sodium phosphate 0.1 M, sodium chloride 150 mM
[2] = pH 5, CD, Sodium phosphate buffer, NaCl
[3] = pH 5, Fluorescence, Sodium phosphate 0.1 M, sodium chloride 150 mM
[4] = pH 5, fluorescence, Sodium phosphate buffer, NaCl
[5] = pH 7, CD, Sodium phosphate 0.1 M, sodium chloride 150 mM
[6] = pH 7, CD, Sodium phosphate buffer, NaCl
[7] = pH 7, Fluorescence, Sodium phosphate 0.1 M, sodium chloride 150 mM

B1: Pectate lyase C wild type, P11073 (protein)
chain: MKSLITPITAGLLLALSQPLLAATDTGGYAATAGGNVTGAVSKTATSMQDIVNIIDAARLDANGKKVKGGAYPLVITYTGNEDSLINAAAANICGQWSKDPRGVEIKEFTKGITIIGANGSSANFGIWIKKSSDVVVQNMRIGYLPGGAKDGDMIRVDDSPNVWVDHNELFAANHECDGTPDNDTTFESAVDIKGASNTVTVSYNYIHGVKKVGLDGSSSSDTGRNITYHHNYYNDVNARLPLQRGGLVHAYNNLYTNITGSGLNVRQNGQALIENNWFEKAINPVTSRYDGKNFGTWVLKGNNITKPADFSTYSITWTADTKPYVNADSWTSTGTFPTVAYNYSPVSAQCVKDKLPGYAGVGKNLATLTSTACK
**Q.** What does the source list for B1?
**A.** Tm (pH 4): 56.5 °C; unfolding enthalpy (calorimetric) (pH 4): 256 kcal/mol; unfolding enthalpy (van 't Hoff) (pH 4): 174 kcal/mol; denaturant m value [1]: 15.7 kcal/mol/M; denaturant midpoint (higher = more stable) [1]: 0.95 M; unfolding free energy [1]: 14.9 kcal/mol; denaturant m value [2]: 12.5 kcal/mol/M and 15.7 kcal/mol/M; denaturant midpoint (higher = more stable) [2]: 0.97 M; unfolding free energy [2]: 14.9 kcal/mol; denaturant m value [3]: 14.5 kcal/mol/M; denaturant midpoint (higher = more stable) [3]: 0.96 M; unfolding free energy [3]: 14 kcal/mol; denaturant m value [4]: 14.5 kcal/mol/M; denaturant midpoint (higher = more stable) [4]: 0.96 M; unfolding free energy [4]: 14 kcal/mol; Tm (pH 5): 59.8 °C; unfolding enthalpy (calorimetric) (pH 5): 270 kcal/mol; unfolding enthalpy (van 't Hoff) (pH 5): 181 kcal/mol; Tm (pH 6): 56.5 °C; unfolding enthalpy (calorimetric) (pH 6): 255 kcal/mol; unfolding enthalpy (van 't Hoff) (pH 6): 203 kcal/mol; denaturant m value [5]: 12.2 kcal/mol/M and 11.8 kcal/mol/M; denaturant midpoint (higher = more stable) [5]: 0.99 M and 0.98 M; unfolding free energy [5]: 12.1 kcal/mol and 11.6 kcal/mol; denaturant m value [6]: 12.2 kcal/mol/M and 11.8 kcal/mol/M; denaturant midpoint (higher = more stable) [6]: 0.99 M and 0.98 M; unfolding free energy [6]: 12.1 kcal/mol and 11.6 kcal/mol; denaturant m value [7]: 13 kcal/mol/M; denaturant midpoint (higher = more stable) [7]: 1 M; unfolding free energy [7]: 13 kcal/mol; Tm (pH 7): 51.2 °C; unfolding enthalpy (calorimetric) (pH 7): 240 kcal/mol; unfolding enthalpy (van 't Hoff) (pH 7): 219 kcal/mol; Tm (pH 8): 46.5 °C; unfolding enthalpy (calorimetric) (pH 8): 235 kcal/mol; unfolding enthalpy (van 't Hoff) (pH 8): 201 kcal/mol
